Assay [1] concerns the target T1, 人4-1BB-hFc蛋白 (human, UniProt Q07011 24-186).
T1 construct: extracellular domain; The coated protein of the ELISA is called 人4-1BB-hFc蛋白; also called h4-1BB蛋白; 4-1BB重组蛋白; not shown: human IgG Fc fragment (hFc) of the pCpC vector
Briefly: ELISA, plate coated with human 4-1BB-hFc at 1.0 μg/mL, HRP secondary antibody. For orientation: ELISA stands for enzyme-linked immunosorbent assay.

The target of assay [2] is T2, 人源EGFRvIII (CHO-K1细胞表面表达) (human, UniProt P00533 25-1210).
T2 construct: whole, on cells; Stably expressed on CHO-K1 cells; It is a deletion variant of EGFR and not the wild type; also called hEGFRvIII; CHO-K1-hEGFRvIII
Briefly: FACS on CHO-K1 cells expressing human EGFRvIII, FITC anti-human IgG Fc.

Assay [3] deals with T3, 人4-1BB (CHO-K1细胞表面表达) (human, UniProt Q07011 24-255).
T3 construct: whole, on cells; Stably expressed on CHO-K1 cells for FACS; also called h4-1BB; CHO-K1-h4-1BB
The assay is described as follows: FACS on CHO-K1 cells expressing human 4-1BB, FITC anti-human IgG Fc.

These results are taken from CN117186235A (SHANGHAI HUAIYUE BIOLOGICAL TECH CO LTD, dated 2023).

T3 sequence (Q07011 24-255): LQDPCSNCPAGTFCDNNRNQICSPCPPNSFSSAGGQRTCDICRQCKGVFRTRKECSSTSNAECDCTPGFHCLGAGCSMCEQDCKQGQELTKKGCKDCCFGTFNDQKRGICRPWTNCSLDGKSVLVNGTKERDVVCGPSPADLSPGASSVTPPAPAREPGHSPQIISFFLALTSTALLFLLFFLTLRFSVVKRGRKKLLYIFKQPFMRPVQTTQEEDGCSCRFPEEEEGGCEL

B1: 抗4-1BB抗体PE0116全长抗体 (antibody, V domains shown)
VH: QVQLVESGGGVVQPGRSLRLSCAASGLTFSSYGMHWVRQAPGKGLEWVAVIWYDGSNKYYADSVKGRFTISRDNSKNTLYLQMNSLRAEDTAVYYCAREEVLWFGELSYNYYYGMDVWGQGTTVTVSS
VL: DIQMTQSPSSLSASVGDRVTITCRASQGISNYLAWYQQKPGKVPKLLIYAASTLQSGVPSRFSGSGSGTDFTLTISSLQPEDVATYYCQKYNSVPLTFGGGTKVEIK
notes: Fully human antibody from Harbour transgenic mice; the bispecific uses it as IgG4; also called HY0101; PE0016
B1: in assay [1], the binding result is “binds”.

B2: 抗4-1BB/抗EGFRvIII双特异抗体HY1001007 (bispecific antibody, IgG4)
heavy (part 1 of 2): B1 VH
heavy (part 2 of 2): GGGGSGGGGSGGGGSEIVLTQSPATLSLSPGERATLSCRASSSVSSSYLHWYQQKPGQAPRLLIYSTSNLAAGIPARFSGSGSGTDFTLTISSLEPEDFAVYYCQQYSGYPLTFGGGTKVEIKGGGGSGGGGSGGGGSQVQLVQSGAEVKKPGASVKVSCKASGYTFTDYNMDWVRQAPGQGLEWMGDINPNNADTIYNQKFKGRVTMTRDTSTSTVYMELSSLRSEDTAVYYCARGDYDGYYPVYYAMDYWGQGTTVTVSS
light: B1 VL
notes: IgG-scFv format: PE0116 IgG4 with the 043-1 VL-VH scFv fused to the C-terminus of the heavy chain (PE0116VH-CH-043-1VLVH); also called CH-scFv(043-1VLVH)-IgG4(PE0116); not shown: human IgG4 heavy chain constant region (from the expression vector); human light chain constant region of the expression vector; kappa or lambda not
B2: the binding result in assay [2] and in assay [3] was “binds” in each case.
